According to patent US20240398942A1 (CHIA TAI TIANQING PHARMACEUTICAL GROUP, published 2024):
Residue numbers refer to the chain shown, from its start.

B1: BM1 (dacetuzumab) (antibody, human IgG1, kappa, V domains shown)
VH: EVQLVESGGGLVQPGGSLRLSCAASGYSFTGYYIHWVRQAPGKGLEWVARVIPNAGGTSYNQKFKGRFTLSVDNSKNTAYLQMNSLRAEDTAVYYCAREGIYWWGQGTLVTVSS
VL: DIQMTQSPSSLSASVGDRVTITCRSSQSLVHSNGNTFLHWYQQKPGKAPKLLIYTVSNRFSGVPSRFSGSGSGTDFTLTISSLQPEDFATYFCSQTTHVPWTFGQGTKVEIKR
notes: Benchmark antibody, prepared in-house; also called CD40-BM1; benchmark
B2: BM2 (selicrelumab) (antibody, human IgG2, kappa, V domains shown)
VH: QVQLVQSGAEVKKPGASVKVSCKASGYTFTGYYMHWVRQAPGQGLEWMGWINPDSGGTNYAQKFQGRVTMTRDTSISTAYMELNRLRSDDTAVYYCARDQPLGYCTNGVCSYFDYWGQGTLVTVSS
VL: DIQMTQSPSSVSASVGDRVTITCRASQGIYSWLAWYQQKPGKAPNLLIYTASTLQSGVPSRFSGSGSGTDFTLTISSLQPEDFATYYCQQANIFPLTFGGGTKVEIKR
notes: Benchmark antibody, prepared in-house; also called CD40-BM2; benchmark
B3: humanized antibody huC1H1-V1 (antibody, human IgG2, kappa, V domains shown)
VH: EVQLVESGGGLVKPGGSLRLSCAASGFTFSNYGISWVRQAPGKGLEWVASISSGGDNTYYPDNVKGRFTISRDNAKNSLYLQMNSLRAEDTAVYYCARAGEKAMDYWGQGTLVTVSS
VL: EIVLTQSPATLSLSPGERATLSCRASQTINNNLHWYQQKPGQAPRLLIKYASQSISGIPARFSGSGSGTDFTLTISSLEPEDFAVYFCQQFSSWPLTFGGGTKVEIKR
notes: Human IgG2 / kappa
B4: humanized antibody huC1H1-V2 (antibody, human IgG2, kappa, V domains shown)
VH: B3 VH with A49S
VL: B3 VL
notes: Human IgG2 / kappa
B5: mouse anti-CD40 monoclonal antibody C1H1 (antibody, V domains shown)
VH: EVKLVESGGGLVKPGASLKLSCAASGFTFSNYGISWVRQTSDKRLEWVASISSGGDNTYYPDNVKGRFTISRENAKNTLYLQMSSLKSEDTALYYCARAGEKAMDYWGQGTSVTVSS
VL: DIVLTQSPVTLSVTPGDSVSLSCRASQTINNNLHWYQQKSHESPRLLIKYASQSISGIPSRFSGSGSGTDFTLSINSVETEDFGIYFCQQFSSWPLTFGAGTKLELK
notes: Parent mouse antibody from a hybridoma; the mouse constant regions are not; also called Mouse C1H1
B6: chimeric antibody C1H1 (antibody, human IgG1, kappa, V domains shown)
VH: B5 VH
VL: DIVLTQSPVTLSVTPGDSVSLSCRASQTINNNLHWYQQKSHESPRLLIKYASQSISGIPSRFSGSGSGTDFTLSINSVETEDFGIYFCQQFSSWPLTFGAGTKLELKR
notes: also called Chimeric C1H1

Legend:
human CD40-Fc protein = molecular target: T1, human CD40-Fc protein (human, biotinylated (sites not given) in the capture ELISA and the benchmark blocking ELISA; not biotinylated in the ligand blocking ELISA); experiment: capture ELISA: antibody captured on coated goat anti-human IgG F(ab')2, biotinylated human CD40-Fc 1.15 nM, streptavidin-HRP, OD(450-630)
T1 construct: also called biotinylated human CD40-Fc
T1 sequence (chain, as listed by the source limits assumed): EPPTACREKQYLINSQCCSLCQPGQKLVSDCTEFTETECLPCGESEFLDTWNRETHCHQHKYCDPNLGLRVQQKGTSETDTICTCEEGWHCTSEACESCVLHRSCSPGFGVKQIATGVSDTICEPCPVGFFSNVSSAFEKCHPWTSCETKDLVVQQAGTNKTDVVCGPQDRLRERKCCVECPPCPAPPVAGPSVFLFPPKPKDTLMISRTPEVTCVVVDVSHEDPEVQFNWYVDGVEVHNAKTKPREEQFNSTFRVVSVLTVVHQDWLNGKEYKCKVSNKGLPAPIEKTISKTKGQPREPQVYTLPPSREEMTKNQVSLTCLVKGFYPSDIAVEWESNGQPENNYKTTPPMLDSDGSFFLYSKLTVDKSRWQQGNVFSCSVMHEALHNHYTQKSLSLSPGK
Experimental: The plate was washed once with a washing buffer (PBS+0.05% v/v of Tween-20, PBST) and then blocked with 200 μL/well blocking buffer (PBST containing 5% w/v of skim milk) for 2 h at 37° C. The plate was washed 4 times, and the anti-CD40 antibody of the present application, BM1, BM2, and a negative control hIgG (human immunoglobulin for intravenous injection (pH 4), Hualan Biological Engineering Inc.) serially 5-fold diluted from 66.7 nM in a PBST containing 2.5% w/v of skim milk was added at 100 μL per well. The plate was incubated for 40 min at 37° C. and washed 4 times. A biotinylated human CD40-Fc protein (amino acid residues 21-193 of SEQ ID NO: 30 linked to the N terminus of amino acid residues 99-330 of SEQ ID NO: 28, dissolved in PBST containing 2.5% w/v of skim milk at a concentration of 1.15 nM) was added at 100 μL/well to a 96-well plate coated with the anti-CD40 antibody. The plate was incubated at 37° C. for 40 min and washed 4 times. An HRP-labeled streptavidin (diluted at 1:10000 in PBST, Jackson Immuno Research, Cat. No. 016-030-084) was added at 100 μL/well, and the plate was incubated at 37° C. for another 40 min. After the last wash, 100 μL/well of ELISA substrate TMB (Innoreagents, Cat. No. TMB-S-002) was added and the plate was incubated at room temperature. After 3-10 min, the reaction was stopped by adding 1 M H₂SO₄ at 50 µL/well, and the absorbance of each well was read on a microplate reader using the dual wavelength mode (TMB detection wavelength: 450 nm, reference wavelength: 630 nm). Curves of OD(450-630) values vs. antibody concentration were plotted. Data were analyzed using Graphpad Prism software, and EC₅₀ values were obtained.

[1] = molecular target: T2, cynomolgus monkey CD40-his protein (Acro biosystems, Cat. No. CD0-C52H6) (cynomolgus monkey, UniProt G7PG38 21-193); experiment: SPR (Biacore T200), antibody captured on anti-human IgG chip, CD40-his as analyte, 1:1 fit
T2 construct: Bought protein; not shown: His tag
Source text: (§1) Briefly, a goat anti-human IgG (GE Healthcare, Cat. No. BR100839, human antibody capture kit) was covalently linked to a CM5 chip (GE Healthcare, Cat. No. BR100530, carboxymethylated dextran-coated chip) via the primary amine group using a standard amine coupling kit supplied by Biacore (GE Healthcare, Pittsburgh, PA, USA). Unreacted portions on the biosensor surface were blocked with ethanolamine. Then, the anti-CD40 antibody of the present application and two benchmark antibodies (BM1 (dacetuzumab, Genentech Inc., also referred to CD40-BM1, prepared in-house; the heavy and light chain amino acid sequences are set forth in SEQ ID NOs: 40 and 41, respectively) and BM2 (selicrelumab, Abgenix Inc., also referred to CD40-BM2, prepared in-house; the heavy and light chain amino acid sequences are set forth in SEQ ID NOS: 42 and 43, respectively)) at a concentration of 66.67 nM were directed through the chip at a flow rate of 10 μL/min. Then, serially diluted recombinant human CD40-his (Acro biosystems, Cat. No. CD0-H5228, serially 2-fold diluted from 80 nM in HBS-EP⁺ buffer (supplied by Biacore)) or cynomolgus monkey CD40-his protein (Acro biosystems, Cat. No. CD0-C52H6, serially 2-fold diluted from 80 nM in HBS-EP⁺ buffer (supplied by Biacore)) was directed through the chip at a flow rate of 30 μL/min. The antigen-antibody binding kinetics was tracked for 2 min and the dissociation kinetics was tracked for 10 min. The association and dissociation curves were fitted to a 1:1 Langmuir binding model using BIAcore evaluation software. KD, Kₐ, and Kd values were determined.

[2] = molecular target: T3, recombinant human CD40-his (Acro biosystems, Cat. No. CD0-H5228) (human, UniProt P25942 21-193); experiment: as above
T3 construct: Bought protein; also called human CD40-his protein; not shown: His tag
T3 sequence (P25942 21-193 limits assumed): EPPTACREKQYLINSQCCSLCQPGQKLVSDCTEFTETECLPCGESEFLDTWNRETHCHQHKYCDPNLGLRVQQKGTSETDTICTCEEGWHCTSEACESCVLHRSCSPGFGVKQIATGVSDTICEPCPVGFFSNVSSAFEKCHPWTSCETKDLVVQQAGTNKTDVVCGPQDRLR
Source text: as §1

[3] = molecular target: T3, recombinant human CD40-his (Acro …); experiment: BLI (Octet RED 96), antibody captured on AHC sensor, human CD40-his as analyte, 1:1 fit
Experimental: (§2) After six days of culture in a shake flask, the cell supernatant containing the humanized antibodies huC1H1-V1 to huC1H1-V4 was harvested and the binding affinity of the antibodies to human CD40 was determined on an Octet system (Fortebio, Octet RED 96) according to the following procedures. Briefly, an anti-human IgG Fc capture (AHC) biosensor (from ForteBio) was pre-soaked in a 10 mM glycine solution (pH 1.5) for 3 s, and then soaked in a running buffer (PBST containing 0.5% w/v of BSA) for 3 s. The pre-soaking and soaking procedures were repeated 3 times. Then, the sensor was soaked in the cell supernatant containing the humanized anti-CD40 antibody, chimeric antibody C1H1 dissolved in HBS-EP⁺ buffer at a concentration of 5 μg/mL, or the benchmark dissolved in HBS-EP⁺ buffer at a concentration of 5 μg/mL for 120 s, and then soaked in the running buffer for 5 min. The new baseline was run in the running buffer for 180 s. The sensor was then soaked for 120 s in human CD40-his protein (Acro biosystems, Cat. No. CD0-H5228) 2-fold serially diluted from 40 nM in the running buffer and for 10 min in the running buffer […]. Finally, the sensor was pre-soaked in a 10 mM glycine solution (pH 1.5) for 3 s, and then soaked in the running buffer for 3 s. The pre-soaking and soaking procedures were repeated 3 times. The association and dissociation curves were fitted to a 1:1 Langmuir binding model using ForteBio Data Analysis 8.1.

[4] = molecular target: T3, recombinant human CD40-his (Acro …); experiment: BLI (Octet RED 96), antibody captured from cell supernatant on AHC sensor, human CD40-his as analyte, 1:1 fit
Experimental: as §2

[5] = molecular target: T3, recombinant human CD40-his (Acro …); experiment: SPR (Biacore T200), antibody captured, CD40-his as analyte, 1:1 fit

EC50 (human CD40-Fc protein)	Kd [1]	koff [1]	kon [1]	Kd [2]	koff [2]	kon [2]	Kd [3]	koff [3]	kon [3]	Kd [4]	koff [4]	kon [4]	also measured	Binder
628 pM	9890 pM	0.00616 s⁻¹	623000 M⁻¹ s⁻¹	8870 pM	0.00656 s⁻¹	739000 M⁻¹ s⁻¹	–	–	–	–	–	–	–	B1
1360 pM	–	–	–	–	–	–	1120 pM	0.000979 s⁻¹	874000 M⁻¹ s⁻¹	–	–	–	–	B2
–	–	–	–	–	–	–	–	–	–	904 pM	0.00128 s⁻¹	1.41e+06 M⁻¹ s⁻¹	–	B3
–	–	–	–	–	–	–	–	–	–	596 pM	0.000981 s⁻¹	1.65e+06 M⁻¹ s⁻¹	–	B4
–	–	–	–	–	–	–	–	–	–	–	–	–	Kd [5]: 428 pM; koff [5]: 0.000897 s⁻¹; kon [5]: 2.1e+06 M⁻¹ s⁻¹	B5
–	1060 pM	0.00148 s⁻¹	1.39e+06 M⁻¹ s⁻¹	861 pM	0.00157 s⁻¹	1.82e+06 M⁻¹ s⁻¹	633 pM	0.000929 s⁻¹	1.47e+06 M⁻¹ s⁻¹	–	–	–	–	B6
